Reference: patent publication US20200010841

Target: T1, HFR1^n-131aa-TBPm3 conjugated protein (UniProt Q9FE22)
T1 sequence: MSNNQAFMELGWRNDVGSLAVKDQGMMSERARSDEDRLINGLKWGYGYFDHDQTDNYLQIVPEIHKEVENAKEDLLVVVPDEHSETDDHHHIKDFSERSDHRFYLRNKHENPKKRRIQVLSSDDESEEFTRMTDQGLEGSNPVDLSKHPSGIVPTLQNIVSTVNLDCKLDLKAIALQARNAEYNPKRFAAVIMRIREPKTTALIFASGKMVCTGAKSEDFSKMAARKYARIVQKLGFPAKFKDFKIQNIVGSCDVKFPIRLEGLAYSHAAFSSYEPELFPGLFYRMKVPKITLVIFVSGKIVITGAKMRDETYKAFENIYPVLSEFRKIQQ

COP1^L105A (Constitutive photomorphogenic1 with amino acid mutation Leu to Ala)
Histochemical GUS staining of post-meiotic anther tapetum, ES transgenic versus F1 [ES x RS]: no staining was appear in the F1 tapetum of the same anther stage
Relative expression of BECLIN1 transcript (qRT-PCR) in anther developmental stages of F1 [MS x RS]: When expression of BECLIN1 was checked in different anther developmental stages, it was found that their expression was abolished
